# Experimental data as given in IntAct's records for PubMed 35512704.
# B1: Mothers against decapentaplegic homolog 4 (Homo sapiens), Q13485 (parent)
# chain: MDNMSITNTPTSNDACLSIVHSLMCHRQGGESETFAKRAIESLVKKLKEKKDELDSLITAITTNGAHPSKCVTIQRTLDGRLQVAGRKGFPHVIYARLWRWPDLHKNELKHVKYCQYAFDLKCDSVCVNPYHYERVVSPGIDLSGLTLQSNAPSSMMVKDEYVHDFEGQPSLSTEGHSIQTIQHPPSNRASTETYSTPALLAPSESNATSTANFPNIPVASTSQPASILGGSHSEGLLQIASGPQPGQQQNGFTGQPATYHHNSTTTWTGSRTAPYTPNLPHHQNGHLQHHPPMPPHPGHYWPVHNELAFQPPISNHPAPEYWCSIAYFEMDVQVGETFKVPSSCPIVTVDGYVDPSGGDRFCLGQLSNVHRTEAIERARLHIGKGVQLECKGEGDVWVRCLSDHAVFVQSYYLDREAGRAPGDAVHKIYPSAYIKVFDLRQCHRQMQQQAATAQAAAAAQAAAVAGNIPGPGSVGGIAPAISLSAAAGIGVDDLRRLCILRMSFVKGWGPDYPRQSIKETPCWIEIHLHRALQLLDEVLHTMPIADPQPLD
# partner: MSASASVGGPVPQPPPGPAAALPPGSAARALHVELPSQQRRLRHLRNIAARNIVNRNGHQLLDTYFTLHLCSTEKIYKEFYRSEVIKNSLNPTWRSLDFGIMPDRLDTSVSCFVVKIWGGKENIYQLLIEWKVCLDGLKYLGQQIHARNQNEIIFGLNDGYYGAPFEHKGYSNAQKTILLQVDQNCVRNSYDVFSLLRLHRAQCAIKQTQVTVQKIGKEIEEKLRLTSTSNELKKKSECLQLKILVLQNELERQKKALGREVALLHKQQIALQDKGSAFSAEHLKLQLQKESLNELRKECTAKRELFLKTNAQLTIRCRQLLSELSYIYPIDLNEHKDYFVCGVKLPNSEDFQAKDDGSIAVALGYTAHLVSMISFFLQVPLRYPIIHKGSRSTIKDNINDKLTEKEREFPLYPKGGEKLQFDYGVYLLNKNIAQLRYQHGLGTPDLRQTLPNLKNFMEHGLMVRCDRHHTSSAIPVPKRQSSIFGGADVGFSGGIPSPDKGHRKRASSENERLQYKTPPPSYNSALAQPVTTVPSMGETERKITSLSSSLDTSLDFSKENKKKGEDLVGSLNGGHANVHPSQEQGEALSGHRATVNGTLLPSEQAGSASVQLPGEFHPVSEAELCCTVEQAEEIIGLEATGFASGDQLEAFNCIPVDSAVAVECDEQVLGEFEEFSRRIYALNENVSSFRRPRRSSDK
# B2: Mothers against decapentaplegic homolog 4 (Homo sapiens), Q13485 (parent)
# chain: B1 chain
# partner: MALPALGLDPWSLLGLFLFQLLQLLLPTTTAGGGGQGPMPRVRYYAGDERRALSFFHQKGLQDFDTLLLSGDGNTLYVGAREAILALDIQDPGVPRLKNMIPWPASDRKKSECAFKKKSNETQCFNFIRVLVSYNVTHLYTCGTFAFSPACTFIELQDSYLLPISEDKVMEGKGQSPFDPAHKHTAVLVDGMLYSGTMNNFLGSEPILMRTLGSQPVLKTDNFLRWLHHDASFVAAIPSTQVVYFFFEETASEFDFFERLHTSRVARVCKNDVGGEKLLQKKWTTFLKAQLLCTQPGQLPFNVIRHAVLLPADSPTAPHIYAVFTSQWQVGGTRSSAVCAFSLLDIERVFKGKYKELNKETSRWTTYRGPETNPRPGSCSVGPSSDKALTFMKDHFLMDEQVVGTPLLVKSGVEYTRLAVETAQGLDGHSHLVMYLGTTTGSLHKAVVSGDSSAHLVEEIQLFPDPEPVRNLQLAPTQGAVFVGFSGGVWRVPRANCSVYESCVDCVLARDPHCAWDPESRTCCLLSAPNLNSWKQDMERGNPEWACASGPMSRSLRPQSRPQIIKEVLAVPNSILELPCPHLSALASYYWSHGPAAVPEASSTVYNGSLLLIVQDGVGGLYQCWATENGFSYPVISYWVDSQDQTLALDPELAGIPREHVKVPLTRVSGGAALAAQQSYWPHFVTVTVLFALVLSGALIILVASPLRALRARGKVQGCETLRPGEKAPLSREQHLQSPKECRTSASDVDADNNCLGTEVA
# B3: Mothers against decapentaplegic homolog 4 (Homo sapiens), Q13485 (parent)
# chain: B1 chain
# partner: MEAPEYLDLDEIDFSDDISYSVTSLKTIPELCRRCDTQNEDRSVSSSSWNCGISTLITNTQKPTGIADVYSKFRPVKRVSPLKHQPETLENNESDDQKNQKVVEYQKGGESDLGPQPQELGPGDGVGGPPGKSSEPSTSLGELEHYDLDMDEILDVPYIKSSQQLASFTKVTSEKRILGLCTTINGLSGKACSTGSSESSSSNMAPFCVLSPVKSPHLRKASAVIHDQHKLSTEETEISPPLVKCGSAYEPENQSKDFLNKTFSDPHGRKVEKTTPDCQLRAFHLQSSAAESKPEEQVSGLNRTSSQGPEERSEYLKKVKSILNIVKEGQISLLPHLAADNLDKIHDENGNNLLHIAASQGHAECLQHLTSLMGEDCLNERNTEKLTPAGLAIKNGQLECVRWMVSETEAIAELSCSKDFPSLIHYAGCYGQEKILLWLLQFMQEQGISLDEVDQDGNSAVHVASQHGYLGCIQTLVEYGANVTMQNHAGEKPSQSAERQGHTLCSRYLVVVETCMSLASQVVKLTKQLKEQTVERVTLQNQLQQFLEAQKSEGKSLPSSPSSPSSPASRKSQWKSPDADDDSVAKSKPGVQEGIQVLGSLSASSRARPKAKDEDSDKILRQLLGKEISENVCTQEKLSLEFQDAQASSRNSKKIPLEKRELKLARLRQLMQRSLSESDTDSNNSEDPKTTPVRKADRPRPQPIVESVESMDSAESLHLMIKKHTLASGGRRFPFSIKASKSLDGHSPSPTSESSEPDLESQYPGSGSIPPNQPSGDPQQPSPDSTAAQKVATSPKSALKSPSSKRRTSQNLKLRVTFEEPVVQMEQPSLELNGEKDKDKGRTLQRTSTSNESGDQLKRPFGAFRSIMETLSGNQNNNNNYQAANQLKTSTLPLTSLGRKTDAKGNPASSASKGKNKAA
# B4: Mothers against decapentaplegic homolog 4 (Homo sapiens), Q13485 (parent)
# chain: B1 chain
# partner: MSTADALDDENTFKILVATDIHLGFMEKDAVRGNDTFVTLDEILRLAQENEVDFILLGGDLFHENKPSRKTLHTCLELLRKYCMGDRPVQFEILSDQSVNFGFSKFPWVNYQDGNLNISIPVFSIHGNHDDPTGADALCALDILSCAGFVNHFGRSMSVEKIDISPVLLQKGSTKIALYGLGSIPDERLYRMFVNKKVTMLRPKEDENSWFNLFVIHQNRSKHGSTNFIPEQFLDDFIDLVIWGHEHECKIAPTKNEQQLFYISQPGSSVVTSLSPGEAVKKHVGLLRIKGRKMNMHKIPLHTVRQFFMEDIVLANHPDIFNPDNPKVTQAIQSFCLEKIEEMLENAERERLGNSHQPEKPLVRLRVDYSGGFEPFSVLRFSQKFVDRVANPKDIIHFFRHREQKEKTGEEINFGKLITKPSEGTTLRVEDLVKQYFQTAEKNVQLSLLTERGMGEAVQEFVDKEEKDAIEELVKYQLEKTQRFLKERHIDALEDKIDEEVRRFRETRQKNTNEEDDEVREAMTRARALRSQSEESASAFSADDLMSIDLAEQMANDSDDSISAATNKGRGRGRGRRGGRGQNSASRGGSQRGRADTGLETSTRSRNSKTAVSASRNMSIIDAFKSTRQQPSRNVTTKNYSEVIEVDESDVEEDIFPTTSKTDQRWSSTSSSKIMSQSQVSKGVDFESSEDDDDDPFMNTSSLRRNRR
# Variants of: B1
# Details: with uvrag_human UVRAG
row,effect of a mutation on the interaction,Variant
1,with no effect,R361C

# Variants of: B1
# Details: with uvrag_human UVRAG
# Remark: another data set of the same source
row,effect of a mutation on the interaction,Variant
1,with no effect,R361H

# Variants of: B1
# Details: with uvrag_human UVRAG
# Remark: another data set of the same source
row,effect of a mutation on the interaction,Variant
1,with no effect,G386D

# Variants of: B2
# Details: with sem4a_human SEMA4A
row,effect of a mutation on the interaction,Variant
1,with no effect,G386D

# Variants of: B2
# Details: with sem4a_human SEMA4A
# Remark: another data set of the same source
row,effect of a mutation on the interaction,Variant
1,with no effect,R361H

# Variants of: B2
# Details: with sem4a_human SEMA4A
# Remark: another data set of the same source
row,effect of a mutation on the interaction,Variant
1,with no effect,R361C

# Variants of: B2
# Details: with sem4a_human SEMA4A
# Remark: another data set of the same source
row,effect of a mutation on the interaction,Variant
1,with no effect,D351H

# Variants of: B3
# Details: with sncap_human SNCAIP
row,effect of a mutation on the interaction,Variant
1,with no effect,D351H

# Variants of: B3
# Details: with sncap_human SNCAIP
# Remark: another data set of the same source
row,effect of a mutation on the interaction,Variant
1,with no effect,R361H

# Variants of: B3
# Details: with sncap_human SNCAIP
# Remark: another data set of the same source
row,effect of a mutation on the interaction,Variant
1,with no effect,R361C

# Variants of: B3
# Details: with sncap_human SNCAIP
# Remark: another data set of the same source
row,effect of a mutation on the interaction,Variant
1,with no effect,G386D

# Variants of: B4
# Details: with mre11_human MRE11, P49959
row,effect of a mutation on the interaction,Variant
1,with no effect,R361H
